Results published in patent publication EP4671273A1 (Anaveon AG, dated 2025).
Positions count from the first letter of the chain named. Like-named read-outs stand apart in the source and are kept apart here.

B1: PAP722 (bispecific antibody, human IgG1, kappa, lambda, L234A L235A)
heavy 1: EVQLLESGGGLVQPGGSLRLSCAASGFTFSINAMTWVRQAPGKGLEWVSTISGSGFSTYYADSLKGRFTISRDNSKNTLYLQMNSLRAEDTAVYYCAKEVYGDYWGQGTLVTVSSASTKGPSVFPLAPSSKSTSGGTAALGCLVKDYFPEPVTVSWNSGALTSGVHTFPAVLQSSGLYSLSSVVTVPSSSLGTQTYICNVNHKPSNTKVDKRVEPKSCDKTHTCPPCPAPEAAGGPSVFLFPPKPKDTLMISRTPEVTCVVVDVSHEDPEVKFNWYVDGVEVHNAKTKPREEQYNSTYRVVSVLTVLHQDWLNGKEYKCKVSNKALAAPIEKTISKAKGQPREPQVCTLPPSREEMTKNQVSLSCAVKGFYPSDIAVEWESNGQPENNYKTTPPVLDSDGSFFLVSKLTVDKSRWQQGNVFSCSVMHEALHNHYTQKSLSLSPGK
light 1: not shown
heavy 2: QVQLQESGPGLVKPSETLSLTCTVSGGSISSDYWGWIRQPPGKGLEWIGYISSRGSTNYNPSLKRRVTISVDTSRNQFSLKLSSVTAADTAVYYCARSAGVADFDFWGQGTLVTVSSASTKGPSVFPLAPSSKSTSGGTAALGCLVKDYFPEPVTVSWNSGALTSGVHTFPAVLQSSGLYSLSSVVTVPSSSLGTQTYICNVNHKPSNTKVDKRVEPKSCDKTHTCPPCPAPEAAGGPSVFLFPPKPKDTLMISRTPEVTCVVVDVSHEDPEVKFNWYVDGVEVHNAKTKPREEQYNSTYRVVSVLTVLHQDWLNGKEYKCKVSNKALAAPIEKTISKAKGQPREPQVYTLPPCREEMTKNQVSLWCLVKGFYPSDIAVEWESNGQPENNYKTTPPVLDSDGSFFLYSKLTVDKSRWQQGNVFSCSVMHEALHNHYTQKSLSLSPGK
light 2: not shown
B2: XOW683 (bispecific antibody, human IgG1, kappa, lambda, L234A L235A)
heavy 1: B1 heavy 1
light 1: not shown
heavy 2: B1 heavy 2 with S53Y, R54S, R65S, A102T, F106A
light 2: not shown
B3: YCV364 (bispecific antibody, human IgG1, kappa, lambda, L234A L235A)
heavy 1: B1 heavy 1
light 1: not shown
heavy 2: B1 heavy 2 with Y33F
light 2: not shown
B4: CDP278 (bispecific antibody, human IgG1, kappa, lambda, L234A L235A)
heavy 1: B1 heavy 1
light 1: not shown
heavy 2: B1 heavy 2 with Y33F, A102T
light 2: not shown
B5: CDP451 (bispecific antibody, human IgG1, kappa, lambda, L234A L235A)
heavy 1: B1 heavy 1
light 1: not shown
heavy 2: B1 heavy 2 with Y33F, A102T
light 2: not shown
B6: EJD551 (bispecific antibody, human IgG1, kappa, lambda, L234A L235A)
heavy 1: B1 heavy 1
light: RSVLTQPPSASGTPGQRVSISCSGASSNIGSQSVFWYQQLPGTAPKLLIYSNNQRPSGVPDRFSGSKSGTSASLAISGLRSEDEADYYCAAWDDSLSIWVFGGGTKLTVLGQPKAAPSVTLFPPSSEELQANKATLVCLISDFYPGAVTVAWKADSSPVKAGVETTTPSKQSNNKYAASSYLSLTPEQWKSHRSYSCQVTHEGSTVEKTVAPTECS
heavy 2: B1 heavy 2 with S53Y, R65S, A102T, F106W
chain: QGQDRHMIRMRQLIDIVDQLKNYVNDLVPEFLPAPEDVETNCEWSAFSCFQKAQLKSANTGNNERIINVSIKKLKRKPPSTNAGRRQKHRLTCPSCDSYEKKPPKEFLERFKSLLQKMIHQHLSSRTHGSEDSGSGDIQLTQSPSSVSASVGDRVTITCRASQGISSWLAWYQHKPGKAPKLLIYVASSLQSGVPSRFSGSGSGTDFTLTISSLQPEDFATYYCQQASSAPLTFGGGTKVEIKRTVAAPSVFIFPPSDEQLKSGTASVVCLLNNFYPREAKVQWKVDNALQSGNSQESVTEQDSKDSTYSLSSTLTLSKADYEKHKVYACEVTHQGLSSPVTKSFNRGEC
B7: ETR048 (bispecific antibody, human IgG1, kappa, lambda, L234A L235A)
heavy 1: B1 heavy 1
light 1: not shown
heavy 2: B1 heavy 2 with S53Y, R65S, A102T, F106W
light 2: not shown
B8: GMH764 (bispecific antibody, human IgG1, kappa, lambda, L234A L235A)
heavy 1: B1 heavy 1
light 1: not shown
heavy 2: B1 heavy 2 with S53Y, R65S, A102T, F106W
light 2: not shown
B9: GSV075 (bispecific antibody, human IgG1, kappa, lambda, L234A L235A)
heavy 1: B1 heavy 1
light 1: not shown
heavy 2: B1 heavy 2 with S53Y, R65S, A102T, F106W
light 2: not shown
B10: BBU753 (bispecific antibody, human IgG1, kappa, lambda, L234A L235A)
heavy 1: B1 heavy 1
light 1: not shown
heavy 2: B1 heavy 2 with Y33F
light 2: not shown
B11: VYL308 (bispecific antibody, human IgG1, kappa, lambda, L234A L235A)
heavy 1: B1 heavy 1
light 1: not shown
heavy 2: B1 heavy 2 with S53Y, R65S, A102T, F106A
light 2: not shown
B12: ULS916 (bispecific antibody, human IgG1, kappa, lambda, L234A L235A)
heavy 1: B1 heavy 1
light 1: not shown
heavy 2: B1 heavy 2 with S53Y, R65S, A102T, F106A
light 2: not shown
B13: UNY098 (bispecific antibody, human IgG1, kappa, lambda, L234A L235A)
heavy 1: B1 heavy 1
light 1: not shown
heavy 2: B1 heavy 2 with S53Y, R65S, A102T, F106A
light 2: not shown
B14: GOP758 (bispecific antibody, human IgG1, kappa, lambda, L234A L235A)
heavy 1: B1 heavy 1
light 1: not shown
heavy 2: B1 heavy 2 with Y33F, A102T
light 2: DIQMTQSPSSVSASVGDRVTITCRASQGISSWLAWYQHKPGKAPKLLIYVASSLQGGGGSQGQDRHMIRMRQLIDIVDQLKNYVNDLVPEFLPAPEDVETNCEWSAFSCFQKAQLKSANTGNNERIINVSIKKLKRKPPSTNAGRRQKHRLTCPSCDSYEKKPPKEFLERFKSLLQKMIHQHLSSRTHGSEDSGGGGSSGVPSRFSGSGSGTDFTLTISSLQPEDFATYYCQQANSFPLTFGGGTKVEIKRTVAAPSVFIFPPSDEQLKSGTASVVCLLNNFYPREAKVQWKVDNALQSGNSQESVTEQDSKDSTYSLSSTLTLSKADYEKHKVYACEVTHQGLSSPVTKSFNRGEC
B15: VCG677 (bispecific antibody, human IgG1, kappa, lambda, L234A L235A)
heavy 1: B1 heavy 1
light 1: not shown
heavy 2: B1 heavy 2 with Y33F, A102T
light 2: not shown
B16: ZNP367 (bispecific antibody, human IgG1, kappa, lambda, L234A L235A)
heavy 1: B1 heavy 1
light 1: not shown
heavy 2: B1 heavy 2 with Y33F, A102T
light 2: not shown
B17: IFM656 (bispecific antibody, human IgG1, kappa, lambda, L234A L235A)
heavy 1: B1 heavy 1
light 1: not shown
heavy 2: not shown
light 2: DIQLTQSPSSVSASVGDRVTITCRASQGISSWLAWYQHKPGKAPKLLIYVASSLQSGVPSRFSGSGSGTDFTLTISSLQPEDFATYYCQQASSFPLTFGGGTKVEIKRTVAAPSVFIFPPSDEQLKSGTASVVCLLNNFYPREAKVQWKVDNALQSGNSQESVTEQDSKDSTYSLSSTLTLSKADYEKHKVYACEVTHQGLSSPVTKSFNRGEC
B18: SUR250 (bispecific antibody, human IgG1, kappa, lambda, L234A L235A)
heavy 1: B1 heavy 1
light 1: not shown
heavy 2: not shown
light 2: B17 light 2
B19: DHJ369 (bispecific antibody, human IgG1, kappa, lambda, L234A L235A)
heavy 1: B1 heavy 1
light 1: not shown
heavy 2: not shown
light 2: B17 light 2 with L4M, S92N
B20: JKJ112 (bispecific antibody, human IgG1, kappa, lambda, L234A L235A)
heavy 1: B1 heavy 1
light 1: not shown
heavy 2: not shown
light 2: B17 light 2 with L4M, S92N
B21: ZBA121 (bispecific antibody, human IgG1, kappa, lambda, L234A L235A)
heavy 1: B1 heavy 1
light 1: not shown
heavy 2: not shown
light 2: B17 light 2 with L4M, S92N
B22: CMQ332 (bispecific antibody, human IgG1, kappa, lambda, L234A L235A)
heavy 1: B1 heavy 1
light 1: not shown
heavy 2: not shown
light 2: B17 light 2 with L4M, S92N, F94A
B23: OUQ507 (bispecific antibody, human IgG1, kappa, lambda, L234A L235A)
heavy 1: B1 heavy 1
light 1: not shown
heavy 2: not shown
light 2: B17 light 2 with L4M, S92N, F94A
B24: JAK529 (bispecific antibody, human IgG1, kappa, lambda, L234A L235A)
heavy 1: B1 heavy 1
light 1: not shown
heavy 2: not shown
light 2: B17 light 2 with L4M, S92N, F94A
B25: EXX354 (bispecific antibody, human IgG1, kappa, lambda, L234A L235A)
heavy 1: B1 heavy 1
light 1: not shown
heavy 2: not shown
light 2: B17 light 2 with L4M, S92N, F94A
B26: ECW089 (bispecific antibody, human IgG1, kappa, lambda, L234A L235A)
heavy 1: B1 heavy 1
light 1: not shown
heavy 2: B1 heavy 2 with S53Y, R65S, A102T, F106A
light 2: not shown
B27: EDV817 (bispecific antibody, human IgG1, kappa, lambda, L234A L235A)
heavy 1: B1 heavy 1
light 1: not shown
heavy 2: B1 heavy 2 with S53Y, R65S, A102T, F106A
light 2: not shown

How the values were obtained:
Test in all cases: cell-based or functional assay
[1] = target: T1, human IL-21 receptor (IL-21R) on cells (human, UniProt Q9HBE5 20-538; P31785 23-369)
T1 sequence (Q9HBE5 20-538, chain 1 of 2): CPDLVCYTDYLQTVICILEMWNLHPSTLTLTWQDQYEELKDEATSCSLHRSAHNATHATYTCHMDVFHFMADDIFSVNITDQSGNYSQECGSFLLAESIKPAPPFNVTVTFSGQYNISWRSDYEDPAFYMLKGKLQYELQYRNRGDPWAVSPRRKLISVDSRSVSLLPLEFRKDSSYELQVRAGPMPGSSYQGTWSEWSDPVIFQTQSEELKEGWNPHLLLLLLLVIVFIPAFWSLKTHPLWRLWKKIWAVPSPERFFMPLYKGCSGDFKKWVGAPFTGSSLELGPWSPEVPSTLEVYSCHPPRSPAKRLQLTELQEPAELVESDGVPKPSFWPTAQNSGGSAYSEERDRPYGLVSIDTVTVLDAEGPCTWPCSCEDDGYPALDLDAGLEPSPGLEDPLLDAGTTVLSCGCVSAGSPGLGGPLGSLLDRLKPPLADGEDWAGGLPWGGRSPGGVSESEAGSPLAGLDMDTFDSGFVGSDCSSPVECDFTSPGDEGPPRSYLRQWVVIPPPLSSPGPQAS
T1 sequence (P31785 23-369, chain 2 of 2): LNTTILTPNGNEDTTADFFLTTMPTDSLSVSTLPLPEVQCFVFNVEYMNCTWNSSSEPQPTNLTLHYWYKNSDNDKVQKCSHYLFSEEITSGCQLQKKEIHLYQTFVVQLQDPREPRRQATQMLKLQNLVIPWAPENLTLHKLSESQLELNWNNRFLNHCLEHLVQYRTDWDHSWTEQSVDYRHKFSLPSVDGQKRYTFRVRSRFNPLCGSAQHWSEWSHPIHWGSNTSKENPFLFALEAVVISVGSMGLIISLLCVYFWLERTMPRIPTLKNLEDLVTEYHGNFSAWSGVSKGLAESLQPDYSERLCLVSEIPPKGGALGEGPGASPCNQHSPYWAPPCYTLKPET

[2] = target: T1, human IL-21 receptor (IL-21R) on cells; remark: listed apart in the source
[3] = target: T1, human IL-21 receptor (IL-21R) on cells; remark: listed apart in the source
[4] = target: T1, human IL-21 receptor (IL-21R) on cells; remark: listed apart in the source
[5] = target: T1, human IL-21 receptor (IL-21R) on cells; remark: listed apart in the source

Binder | EC50B, pSTAT3+ Jurkat PD-1 cells, PD-1 blocked [1] | EC50NB, pSTAT3+ Jurkat PD-1 cells [1] | EC50B, pSTAT3+ Jurkat PD-1 cells, PD-1 blocked [5] | EC50NB, pSTAT3+ Jurkat PD-1 cells [5] | also measured
B1 | 1.97 nM | 19 pM | – | – | Δ [2]: 4.3
B2 | 1.84 nM | 0.413 nM | – | – | –
B3 | 1.33 nM | 9 pM | – | – | Δ [2]: 4.21
B4 | 1.05 nM | 0.167 nM | – | – | –
B5 | 1.24 nM | 0.106 nM | – | – | –
B6 | 1.06 nM | 16 pM | – | – | –
B7 | 0.751 nM | 12 pM | – | – | –
B8 | 0.872 nM | 13 pM | – | – | –
B9 | 0.627 nM | 23 pM | – | – | –
B10 | 0.312 nM | 15 pM | – | – | –
B11 | – | – | – | – | EC50B, pSTAT3+ Jurkat PD-1 cells, PD-1 blocked [3]: 56 pM; EC50NB, pSTAT3+ Jurkat PD-1 cells [3]: 0.7 pM
B12 | – | – | – | – | EC50B, pSTAT3+ Jurkat PD-1 cells, PD-1 blocked [3]: 0.873 nM; EC50NB, pSTAT3+ Jurkat PD-1 cells [3]: 6 pM
B13 | – | – | – | – | EC50B, pSTAT3+ Jurkat PD-1 cells, PD-1 blocked [3]: 0.333 nM; EC50NB, pSTAT3+ Jurkat PD-1 cells [3]: 7 pM
B14 | – | – | – | – | EC50B, pSTAT3+ Jurkat PD-1 cells, PD-1 blocked [4]: 0.51 nM; EC50NB, pSTAT3+ Jurkat PD-1 cells [4]: 0.227 nM
B15 | – | – | – | – | EC50B, pSTAT3+ Jurkat PD-1 cells, PD-1 blocked [4]: 2.3 nM; EC50NB, pSTAT3+ Jurkat PD-1 cells [4]: 39 pM
B16 | – | – | – | – | EC50B, pSTAT3+ Jurkat PD-1 cells, PD-1 blocked [4]: 0.97 nM; EC50NB, pSTAT3+ Jurkat PD-1 cells [4]: 36 pM
B17 | – | – | 15.9 nM | 0.21 nM | –
B18 | – | – | 5.36 nM | 80 pM | –
B19 | – | – | 2.56 nM | 0.24 nM | –
B20 | – | – | 17.2 nM | 0.52 nM | –
B21 | – | – | 103 nM | 0.86 nM | –
B22 | – | – | 34 pM | 12 pM | –
B23 | – | – | 0.42 nM | 24 pM | –
B24 | – | – | 0.44 nM | 27 pM | –
B25 | – | – | 0.28 nM | 39 pM | –
B26 | 0.13 nM | 96.3 pM | – | – | –
B27 | 0.13 nM | 96.9 pM | – | – | –
